Patent US20040259798A1 (KARYON CTT, published 2004)
Bridge positions count the residues as written; N and C are the ends. Ends that are not written are not given here.

What follows are binders tested against αMβ2 integrin (Mac-1) (UniProt P11215 17-1152; P05107 23-769) (assay: phage display biopanning on coated αMβ2 integrin).
Experimental: The αMβ₂ integrin was purified by antibody affinity chromatography from buffy coats obtained from Finnish Red Cross Blood Transfusion Service as described previously (Li et al., 1995). Integrin diluted in Tris-buffered saline (TBS)/1 mM MnCl₂ was coated onto microtiter wells overnight at 4° C. using […] per well in the first biopanning and 100, 10 and 1 ng in subsequent pannings. The wells were blocked with 5% BSA in TBS for 1 h at 22° C. and then washed five times with TBS. Biopanning was performed using CX₇C and CX₉GC phage peptide libraries essentially as described (Koivunen et al., 1994). The construction of libraries was modified so that the single-stranded DNA encoding degenerate sequences was converted into a double-stranded form using 5 cycles of PCR with only the reverse primer and then 11 cycles with both the reverse and forward primer. A total of 6 μg of the double-stranded oligonucleotide was purified using QIAGEN PCR purification kit and ligated with 42 μg of the Fuse5 phage vector. The number of recombinants in the libraries was more than 10⁹. Phage binding, elution and subsequent amplification in E. coli were repeated five times, and after each panning bacterial colonies were picked up and stored in a 10 μl volume of TBS in microtiter wells at −20° C. For direct colony sequencing, […] aliquots of the thawed samples were subjected to PCR with 10 pmol each of the forward primer 5′ […] 3′ and the reverse primer 5′[…] 3′. The PCR conditions were 92° C. for 30 s, 60° C. for 30 s, and 72° C. for 60 s, and the cycle number was 35. One μl aliquot of the PCR reaction was taken for sequencing using 15 pmol of either one of the primers and analyzed on an ABI 310 apparatus (PE Applied Biosystems, Foster City, Calif.).
After the fifh round of selection, the CX₇C library gave a 600-fold enrichment and CX₉GC a 1000-fold enrichment of phage bound to the integrin in comparison to background. […] Four of them contained the LLG tripeptide motif.

Row | Binder | binding result
1 | CWHKDLLGC [phage displaying CWHKDLLGC] | binds
2 | CWKLLGSEEEC [phage displaying CWKLLGSEEEC] | binds
3 | CPPDLFWYC [phage displaying CPPDLFWYC] | binds
4 | CWSMELLGC [phage displaying CWSMELLGC] | binds
5 | CPCFLLGCC [phage displaying CPCFLLGCC (LLG-C4)] | binds

These binders were tested against T1, αLβ2 integrin on Jurkat cells (UniProt P20701 26-1170; P05107 23-769, limits assumed) (assay: inhibition of αLβ2-mediated Jurkat cell adhesion to ICAM-1-Fc (coated directly or captured via protein A), Crystal Violet staining).
T1 construct: whole, on cells

Row | Binder | IC50
6 | CPCFLLGCC (disulfide 1-8, 3-9, also called LLG-C4 peptide; LLG-C4 nonapeptide) [C(1-8;3-9) peptide] | ~80 µM
